Data reported in patent US8415393B2, “Anti-bacterial drug targeting of genome maintenance interfaces” (Wisconsin Alumni Research Foundation, priority 2007, dated 2013).
Where no end group is shown, it is not given here. fluorescein = fluorescein moiety attached to the N-terminus of the peptide (N-terminal fluorescein label)

How the values were obtained:
Test in all cases: fluorescence anisotropy equilibrium binding (Kd,app), ExoI variant titrated into fluorescein-labeled peptide
[1] = target: T1, ExoI Glu150Ala variant (Escherichia coli, UniProt P04995 1-475)
T1 construct: also called E150A; Glu150 variant
T1 sequence: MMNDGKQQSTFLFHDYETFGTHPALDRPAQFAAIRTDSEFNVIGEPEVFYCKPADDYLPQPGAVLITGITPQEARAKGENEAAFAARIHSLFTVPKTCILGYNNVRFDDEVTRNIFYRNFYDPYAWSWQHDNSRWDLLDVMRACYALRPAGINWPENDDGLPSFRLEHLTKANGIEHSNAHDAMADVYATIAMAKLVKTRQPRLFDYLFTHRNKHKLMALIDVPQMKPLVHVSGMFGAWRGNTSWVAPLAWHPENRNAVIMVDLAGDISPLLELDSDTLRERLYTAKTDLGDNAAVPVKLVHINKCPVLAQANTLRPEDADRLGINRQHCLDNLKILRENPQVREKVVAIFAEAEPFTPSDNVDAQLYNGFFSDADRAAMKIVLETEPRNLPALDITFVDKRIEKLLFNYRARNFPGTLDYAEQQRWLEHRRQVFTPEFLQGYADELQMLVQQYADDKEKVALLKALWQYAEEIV

[2] = target: T2, ExoI Gln448Ala variant (Escherichia coli, UniProt P04995 1-475)
T2 construct: helical domain residue; also called Q448A; Gln448 variant
T2 sequence: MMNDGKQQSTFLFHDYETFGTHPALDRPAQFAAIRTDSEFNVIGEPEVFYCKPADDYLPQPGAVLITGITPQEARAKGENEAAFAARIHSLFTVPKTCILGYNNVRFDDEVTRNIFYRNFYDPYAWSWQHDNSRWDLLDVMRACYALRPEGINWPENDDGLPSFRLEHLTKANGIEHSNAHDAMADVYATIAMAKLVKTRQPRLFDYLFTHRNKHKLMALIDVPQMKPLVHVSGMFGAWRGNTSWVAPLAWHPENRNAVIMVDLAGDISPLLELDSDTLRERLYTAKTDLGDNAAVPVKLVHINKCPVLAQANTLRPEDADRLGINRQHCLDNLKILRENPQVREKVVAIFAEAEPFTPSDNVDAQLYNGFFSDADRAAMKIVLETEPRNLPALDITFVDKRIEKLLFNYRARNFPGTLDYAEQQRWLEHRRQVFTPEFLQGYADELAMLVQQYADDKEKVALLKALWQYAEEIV

[3] = target: T3, ExoI Leu331Ala variant (Escherichia coli, UniProt P04995 1-475)
T3 construct: also called L331A
T3 sequence: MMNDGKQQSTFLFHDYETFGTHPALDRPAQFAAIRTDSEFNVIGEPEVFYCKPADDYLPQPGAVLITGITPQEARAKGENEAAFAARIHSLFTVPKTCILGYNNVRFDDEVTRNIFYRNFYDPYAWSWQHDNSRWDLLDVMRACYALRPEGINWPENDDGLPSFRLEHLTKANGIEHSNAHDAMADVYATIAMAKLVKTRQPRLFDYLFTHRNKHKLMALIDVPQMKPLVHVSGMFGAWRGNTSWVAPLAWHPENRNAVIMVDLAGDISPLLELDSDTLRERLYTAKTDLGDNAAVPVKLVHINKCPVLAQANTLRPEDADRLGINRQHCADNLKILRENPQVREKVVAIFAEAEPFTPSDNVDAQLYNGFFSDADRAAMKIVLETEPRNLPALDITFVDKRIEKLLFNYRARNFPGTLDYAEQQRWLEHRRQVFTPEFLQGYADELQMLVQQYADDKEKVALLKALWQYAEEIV

[4] = target: T4, ExoI Lys227Ala variant (Escherichia coli, UniProt P04995 1-475)
T4 construct: basic ridge residue; also called K227A; Lys227 variant
T4 sequence: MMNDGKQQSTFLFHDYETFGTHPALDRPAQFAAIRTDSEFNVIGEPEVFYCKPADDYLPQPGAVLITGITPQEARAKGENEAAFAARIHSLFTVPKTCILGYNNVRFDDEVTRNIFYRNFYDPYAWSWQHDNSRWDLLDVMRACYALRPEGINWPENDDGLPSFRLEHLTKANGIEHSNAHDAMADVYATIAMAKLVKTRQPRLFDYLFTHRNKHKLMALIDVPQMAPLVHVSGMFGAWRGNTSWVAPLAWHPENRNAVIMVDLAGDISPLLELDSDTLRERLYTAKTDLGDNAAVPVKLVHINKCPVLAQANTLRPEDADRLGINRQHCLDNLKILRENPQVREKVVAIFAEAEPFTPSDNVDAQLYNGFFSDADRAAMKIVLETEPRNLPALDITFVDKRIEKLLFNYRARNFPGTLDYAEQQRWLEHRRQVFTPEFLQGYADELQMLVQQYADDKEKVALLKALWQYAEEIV

B1: fluorescein-labeled SSB C-terminal peptide (fluorescein-WMDFDDDIPF) (peptide)
peptide: fluorescein-WMDFDDDIPF
notes: also called F-SSB-Ct; F-WT
**Q.** What does the source list for B1?
**A.** Kd [1]: 0.072 µM; Kd [2]: 0.181 µM; Kd [3]: 0.193 µM; Kd [4]: ~1 µM
